Assay results reported in paper PMC3656102.

Tests used:
[1] = biological target: Bunyamwera virus Gc glycoprotein (Bunyamwera virus) (UniProt P04505); experiment: cryo-EM structure; electron cryo-tomography and sub-tomogram averaging of about 2,000 spikes on purified BUNV virions vitrified at pH 7.4; 3.0 nm resolution; three-fold symmetry seen without imposing it; validated by single particle averaging of spike side views
[2] = biological target: Bunyamwera virus Gn–Gc glycoprotein heterodimer (protomer of the membrane-bound glycoprotein spike) (Bunyamwera virus); experiment: as above

Substance	stoichiometry N [1]	stoichiometry N [2]
Bunyamwera virus Gc glycoprotein (from UniProt P04505 478-1433) (natural protein)	3	
Bunyamwera virus Gn–Gc glycoprotein heterodimer (protomer of the membrane-bound glycoprotein spike) (complex)		3
